Among the data in PMC7655567 are Km and kcat values, retold here.

Substrate in the data set: O=C(O)CO
As to the kind of experiment: purified protein. The settings on record: 2 mM FMN, 5 mM MgSO4, 0.5 mM EDTA, 3 mM phenylhydrazine; measured in parallel with RcGOX.

B1: AtGOX1 (Arabidopsis thaliana) (protein)
chain: MEITNVTEYDAIAKQKLPKMVYDYYASGAEDQWTLQENRNAFARILFRPRILIDVSKIDMTTTVLGFKISMPIMVAPTAMQKMAHPDGEYATARAASAAGTIMTLSSWATSSVEEVASTGPGIRFFQLYVYKNRNVVEQLVRRAERAGFKAIALTVDTPRLGRRESDIKNRFTLPPNLTLKNFEGLDLGKMDEANDSGLASYVAGQIDRTLSWKDVQWLQTITKLPILVKGVLTGEDARIAIQAGAAGIIVSNHGARQLDYVPATISALEEVVKATQGRIPVFLDGGVRRGTDVFKALALGASGIFIGRPVVFSLAAEGEAGVRKVLQMLRDEFELTMALSGCRSLKEISRNHITTEWDTPRPSARL
In the case of B1, the Michaelis constant (Km) stood at 390 ± 100 µM and the catalytic constant (kcat) is 1.04 ± 0.237 s⁻¹.

For orientation: Km means the concentration of substrate that gives half-maximal velocity. As usually defined, the kcat is the maximal rate divided by the concentration of active sites.
